Data published in US20050123936A1, “Method, composition, and kit to design, evaluate, and/or test compounds that modulate regulatory factor binding to nucleic acids” (priority 2003, published 2005).
Ends that are not written are not given here. Hoechst 33258 analog = not defined here

How the values were obtained:
[1] = molecular target: T1, extradenticle (Exd) protein (residues 238-324) (Drosophila melanogaster, UniProt P40427); assay: EMSA: recruitment of Exd to its cognate DNA site by polyamides 1-3; assay type: binding; conditions: saturating 50 nM compound, Exd 0-100 nM
T1 construct: comprising the homeodomain and the extended fourth helix (residues 238-324); made in house
T1 sequence (P40427 238-324): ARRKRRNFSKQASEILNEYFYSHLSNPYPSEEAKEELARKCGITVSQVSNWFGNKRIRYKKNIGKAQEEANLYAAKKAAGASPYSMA
Text: (§1) Protein expression: Drosophila extradenticle (Exd) protein comprising the homeodomain and the extended fourth helix (residues 238-324), as well as ultrabithorax (Ubx) protein homeodomain (residues 233-313 of the Ubx isoform IVa) were expressed and purified after Passner & Aggarwal. The purified proteins Exd and Ubx were used for EMSA studies as described below.
(§2) For the templates, the DNA oligonucleotides depicted in FIGS. 2a, 2b, 2c, and 2d were used, SEQ. ID NOS: 5, 6, 7, and 8, respectively. The DNA upper strand was annealed with the respective matching lower strand and both strands were 5′-labeled with γ-^32P-ATP and polynucleotide kinase, using standard procedures.
Gel-shift experiments: The master mix contained 50% BSA/50% glycerol, reaction buffer (150 mM potassium glutamate, 50 mM HEPES pH 7.0, 1 mM DTT, and 5′-end labeled DNA (^32P) The final concentrations in the samples were 100 ng/μL BSA and 10% glycerol. Polyamides were kept in subdued lighting whenever possible. Upon addition of the polyamide to 1 pM DNA, the samples were incubated at 25 °C. for 30 minutes in a 20 μL reaction. Next, Exd was added to the samples and incubated for 1 hour at 4° C. A 9% acrylamide/3% glycerol gel was pre-run for 15 min prior to loading. In each lane 15 μL of a 20 μL reaction were loaded while the gel was running to prevent the samples from being diluted. The gels were run at 4° C./185 V. Gels were dried, exposed to a phosphorimager screen, and visualized using a Molecular Dynamics phosphorimager.
FIGS. 3a and 3b: EMSA studies with polyamides 1-3, Exd and Ubx. In FIG. 3a, each polyamide binds and decreases the mobility of free DNA (lanes 2-18). […] In lanes 2-6,8-12, 14-18, Exd was added in following concentrations: 0, 3, 10, 30, 100 nM. Lanes 19 and 20 contained DNA bearing the Exd-Ubx binding site that was used in X-ray crystal structure determination (see methods above for sequence). In the reaction shown in lane 20, 275 nM Ubx and 30 nM Exd were incubated with DNA. […]

[2] = molecular target: TGGTCA matched site on 250-bp EcoRI/PvuII restriction fragment from plasmid pDEH9; assay: Quantitative DNase I footprint titration, matched site; assay type: binding; conditions: 12 h at 22° C., TKMC buffer pH 7.0, read-out: Equilibrium Dissociation Constants Kd, TGGTCA
Protocol: (§3) Quantitative DNaseI footprinting can be used to determine the equilibrium association constants for binding to match and mismatch sites. Footprinting experiments are generally performed on 3′- and/or 5′-^32P end restriction fragments derived from plasmids. 3′-shifted cleavage patterns are consistent with location of the polyamide in the minor groove. Typical reaction conditions are: 10 mM Tris-HCl, 10 mM KCl, 10 mM MgCl2, 5 mM CaCl2, pH 7.0, and 22° C. See Brenowitz et al. (1986). Methods Enzymol. 130:132-181; Fox & Waring (1984) Nucleic Acids Res. 12:9271-9285; and Brenowitz et al. (1986) Proc. Natl. Acad. Sci. U.S.A. 83: 8462-8466.
DNase I Footprinting: Dissociation constants for the DNA binding of compounds 1, 2 and 3 were obtained following published protocols. All reactions were carried out in 400 μL total volume employing 20 kcpm of a 3′-radiolabelled 250-bp restriction fragment from the plasmid pDEH9 (FIG. 1a) (SEQ. ID. NO: 4). […]
FIGS. 1b, 1c, and 1d are quantitative DNAse I footprint titration experiments for compounds 1, 2 and 3 on the 3′^−32 P-labeled 250-bp EcoRI/PvuII restriction fragment from the plasmid pDEH9. […]
The DNA-binding properties of the compounds 1-3 were investigated by quantitative DNase 1 footprinting assays. […]

[3] = system: DNA duplex templates (FIG. 2a optimal; FIG. 2c mismatch in PA binding site); assay: EMSA: binding of polyamides to the DNA duplex templates; conditions: even at 100 nM concentrations
Text: as §2
FIGS. 2a, 2b, 2c and 2d show depict the DNA duplexes used for the EMSA studies. The binding site for the Exd protein is marked by a box, the polyamide or Hox protein binding site is shown in boldface, FIG. 2a depicts the optimal template. FIG. 2b depicts a 2-bp mismatch in the Exd site. FIG. 2c depicts a 2-hp mismatch in the PA binding site. FIG. 2d depicts a composite Ubx-Exd binding site (see Passner et al. (1999) Nature, 397:714-719). […]

[4] = system: TGGCCA mismatch site on 250-bp EcoRI/PvuII restriction fragment from plasmid pDEH9; assay: Quantitative DNase I footprint titration, mismatch site TGGCCA; assay type: binding
Protocol: as §3
(§4) DNase I Footprinting: Dissociation constants for the DNA binding of compounds 1, 2 and 3 were obtained following published protocols. All reactions were carried out in 400 μL total volume employing 20 kcpm of a 3′-radiolabelled 250-bp restriction fragment from the plasmid pDEH9 (FIG. 1a) (SEQ. ID. NO: 4). No carrier DNA was used in the equilibration, and the solutions were allowed to equilibrate for 12 h at 22° C. in TKMC buffer (10 mM TRIS, 10 mM KCl, […], 5 mM CaCl2 pH 7.0) prior to the DNase I digestion. Reaction products (8 kcpm) were resolved on denaturing 8% polyacrylamide sequencing gels run at 55 W.
(§5) FIGS. 1b, 1c, and 1d are quantitative DNAse I footprint titration experiments for compounds 1, 2 and 3 on the 3′^−32 P-labeled 250-bp EcoRI/PvuII restriction fragment from the plasmid pDEH9. Lane 1: Intact DNA. Lane 2: A-reaction. Lane 3: G-reaction. Lane 4: DNAse 1 standard.
(§6) The DNA-binding properties of the compounds 1-3 were investigated by quantitative DNase 1 footprinting assays. The equilibrium binding constants of each of the compounds for a matched versus three single base pair mismatch sites is compiled in Table 1. The lower strand sequence is shown in the header. Mismatched base pairs are underlined. The residue under the YPWM peptide is in bold. Relative specificities are given in square brackets.

[5] = system: TGGGCA mismatch site on 250-bp EcoRI/PvuII restriction fragment from plasmid pDEH9; assay: Quantitative DNase I footprint titration, mismatch site TGGGCA; assay type: binding
Protocol: as §3, §4, §5, §6

[6] = system: AGCTCA mismatch site on 250-bp EcoRI/PvuII restriction fragment from plasmid pDEH9; assay: Quantitative DNase I footprint titration, mismatch site AGCTCA; assay type: binding
Protocol: as §3, §4, §5, §6

Exd = molecular target: T2, Exd (Drosophila melanogaster, UniProt P40427); assay: Example 7 EMSA: recruitment of Exd by linker compounds; assay type: binding
T2 construct: comprising the homeodomain and the extended fourth helix (residues 238-324); made in house
T2 sequence (P40427 238-324): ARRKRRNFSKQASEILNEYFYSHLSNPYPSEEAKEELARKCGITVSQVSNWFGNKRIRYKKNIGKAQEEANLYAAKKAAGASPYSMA
Protocol: The assays were performed with 50 nM of the conjugate pre-incubated with target DNA (thus to bind the anchor moiety to the target nucleic acid) followed by the addition and incubation with Exd.
To determine the effects of longer linker on binding, the ability of compounds using linkers 1, 2 and 4 to recruit Exd at three different temperatures was investigated.

double-stranded DNA = conditions: Behrens et al. (2001); cited from earlier work
[7] = system: duplex DNA with composite Ubx-Exd binding site (FIG. 2d); assay: EMSA: Ubx binding to its cognate DNA
Protocol: (§7) Gel-shift studies with the Ubx protein were performed under identical buffer conditions using the duplex oligonucleotide listed in FIG. 2d. Ubx was added to the reaction mixture containing ^32P-endlabeled duplex DNA and incubated at 4° C. for 30 min. Subsequently Exd was added and the reaction was further incubated for 60 min at 4° C. The complexes were resolved under similar gel conditions as those described for DNA-polyamide-Exd complexes above. […] Under saturating concentrations of Ubx (325 nM) the Kd of Exd for the binary [Ubx-DNA] complex was 2-3 fold larger than the affinity of Exd for the polyamide-DNA binary complex.

[8] = molecular target: T3, extradenticle (Exd) protein (Drosophila melanogaster, UniProt P40427); assay: EMSA: Exd binding to the binary Ubx-DNA complex; conditions: saturating concentrations of Ubx (325 nM)
T3 construct: comprising the homeodomain and the extended fourth helix (residues 238-324); made in house
T3 sequence (P40427 238-324): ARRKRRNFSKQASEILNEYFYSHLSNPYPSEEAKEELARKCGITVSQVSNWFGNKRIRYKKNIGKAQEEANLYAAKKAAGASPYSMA
Protocol: as §1, §7

[9] = molecular target: T4, Drosophila extradenticle (Exd) protein comprising the homeodomain and the extended fourth helix (residues … (Drosophila, UniProt P40427 238-324)); assay: EMSA, conjugate pre-incubated with target DNA, then Exd
T4 sequence (looked up): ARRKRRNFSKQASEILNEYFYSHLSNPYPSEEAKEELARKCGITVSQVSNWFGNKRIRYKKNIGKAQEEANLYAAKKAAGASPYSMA

[10] = molecular target: Ultrabithorax (Ubx) homeodomain, isoform IVa (Drosophila, UniProt P83949-5 P83949-5:233-313); assay: EMSA; Ubx alone; 150 mM K glutamate, 50 mM HEPES pH 7.0, 4 C; conditions: label: 5'-32P both strands
Sequence of Ultrabithorax (Ubx) homeodomain, isoform IVa (P83949 other isoform, or with tags, fused parts or gaps): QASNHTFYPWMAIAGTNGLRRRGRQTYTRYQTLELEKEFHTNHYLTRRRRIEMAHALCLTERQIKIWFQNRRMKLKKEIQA
Protocol: Gel-shift studies with the Ubx protein were performed under identical buffer conditions using the duplex oligonucleotide listed in FIG. 2d. Ubx was added to the reaction mixture containing ³²P-endlabeled duplex DNA and incubated at 4° C. for 30 min. […] The complexes were resolved under similar gel conditions as those described for DNA-polyamide-Exd complexes above.

[11] = relative to matched site TGGTCA

Cmpd 2 (FYPWMKG)
ability to recruit Exd to its cognate DNA site (Exd binding) ([1]; listed as Compound 2): capable of recruiting Exd to DNA
ability to recruit Exd to its cognate DNA site (Exd binding) ([1]; listed as compound 2): binds DNA with very high affinity
Kd [2]: 5.8 ± 0.8 nM
binding to mutated template (polyamide-binding site eliminated) [3]: did not bind
Relative specificity (square brackets), TGGCCA [4, 11]: 1.4
Kd ([4]; single base pair mismatch site, 22° C., TKMC buffer, read-out: Equilibrium Dissociation Constants Kd, TGGCCA): 7.9 ± 1.6 nM
Relative specificity (square brackets), TGGGCA [5, 11]: 17
Kd ([5]; single base pair mismatch site, 22° C., TKMC buffer, read-out: Equilibrium Dissociation Constants Kd, TGGGCA): ≥ 0.1 nM
Relative specificity (square brackets), AGCTCA [6, 11]: 1.1
Kd ([6]; single base pair mismatch site, 22° C., TKMC buffer, read-out: Equilibrium Dissociation Constants Kd, AGCTCA): 6.4 ± 1.1 nM
ability to recruit Exd (Exd; physiological temperatures (37° C.)): fails to do so effectively
ability to recruit Exd (Exd; room temperature (23° C.)): capable of recruiting Exd

Hoechst 33258 analog-KSPKKAKK polypeptide: Hoechst 33258 analog bonded to the N-terminus of the cationic polypeptide KSPKKAKK (Behrens et al.) ({Hoechst 33258 analog}-KSPKKAKK; reading uncertain)
higher affinity for double-stranded DNA than the Hoechst analog itself (double-stranded DNA): approximately 10 fold

B1: Ubx: Drosophila ultrabithorax (Ubx) protein homeodomain (residues 233-313 of the Ubx isoform IVa) (protein, UniProt P83949 233-313, looked up, fragment)
chain: QASNHTFYPWMAIAGECPEDPTKSKIRSDLTQYGGISTDMGKRYSESLAGSLLPDWLGTNGLRRRGRQTYTRYQTLELEKE
modifications: isoform IVa
affinity of Ubx for its DNA site lower than that of compound 2 for its respective site [7]: ≥ 40 fold
Kd ([7]; 4° C.): 200 ± 25 nM
Kd of Exd for the binary [Ubx-DNA] complex, larger than for the polyamide-DNA binary complex [8]: 2-3 fold

FYPAAK (also: conjugated to hairpin polyamide, linker not given here) [polyamide bearing an altered hook (FYPAAK)]
binding result [9]: no binding (tested: 50 nM conjugate)

B2: Composite Ubx-Exd EMSA duplex (FIG. 2d) (dsDNA)
DNA 1: GATCTCCCGGCGAATGATTTATGGTATCGGCGCCACTGTCACCCGGA
DNA 2: TCCGGGTGACAGTGGCGCCGATACCATAAATCATTCGCCGGGAGATC
Kd [10]: 200 nM
